Where “and” joins values, the source holds several entries; their conditions need not be identical. Equal entries are not always repeated.

A word on the Tm: it is the temperature at which the thermal transition is half complete.

The chains are these.
B1: Tissue-type plasminogen activator, P00750 (parent)
chain: MDAMKRGLCCVLLLCGAVFVSPSQEIHARFRRGARSYQVICRDEKTQMIYQQHQSWLRPVLRSNRVEYCWCNSGRAQCHSVPVKSCSEPRCFNGGTCQQALYFSDFVCQCPEGFAGKCCEIDTRATCYEDQGISYRGTWSTAESGAECTNWNSSALAQKPYSGRRPDAIRLGLGNHNYCRNPDRDSKPWCYVFKAGKYSSEFCSTPACSEGNSDCYFGNGSAYRGTHSLTESGASCLPWNSMILIGKVYTAQNPSAQALGLGKHNYCRNPDGDAKPWCHVLKNRRLTWEYCDVPSCSTCGLRQYSQPQFRIKGGLFADIASHPWQAAIFAKHRRSPGERFLCGGILISSCWILSAAHCFQERFPPHHLTVILGRTYRVVPGEEEQKFEVEKYIVHKEFDDDTYDNDIALLQLKSDSSRCAQESSVVRTVCLPPADLQLPDWTECELSGYGKHEALSPFYSERLKEAHVRLYPSSRCTSQHLLNRTVTDNMLCAGDTRSGGPQANLHDACQGDSGGPLVCLNDGRMTLVGIISWGLGCGQKDVPGVYTKVTNYLDWIRDNMRP

Variants of B1 are the subject of this data set. As to conditions: Homo sapiens; pH 8; Thermal; DSC; Tris - Oac/100mM NaOAc 50 mM; structure 1PML; whole UniProt chain shown.
In the case of W288L, the Tm was 71.7 °C and 73.9 °C; the “change of melting temperature, mutant - wild type (higher = more stable)” value (from here on “change of melting temperature, mutant”) is -3.7 °C.

Consider W288S, for which the Tm was 73.7 °C and 76.5 °C; the “change of melting temperature, mutant” value is -3.5 °C. Take W288Y: the melting temperature (Tm) stood at 81.6 °C. For W288F, the “change of melting temperature, mutant” value is -1.7 °C.
